Assay results taken from patent publication US20230303698A1 (HARBOUR BIOMED SHANGHAI, published 2023).

B1: PR003555 (bispecific antibody, human IgG1, kappa, L234A L235A)
light: DIQMTQSPSSLSASIGDRVTITCRASQSINSYLNWYQQKPGKAPKLLIYTASSLLSGVPSRFSASGSWTDFSLTISSLQPEDFATYYCQQSFSTPYTFGQGTNLEIKRTVAAPSVFIFPPSDEQLKSGTASVVCLLNNFYPREAKVQWKVDNALQSGNSQESVTEQDSKDSTYSLSSTLTLSKADYEKHKVYACEVTHQGLSSPVTKSFNRGEC
heavy: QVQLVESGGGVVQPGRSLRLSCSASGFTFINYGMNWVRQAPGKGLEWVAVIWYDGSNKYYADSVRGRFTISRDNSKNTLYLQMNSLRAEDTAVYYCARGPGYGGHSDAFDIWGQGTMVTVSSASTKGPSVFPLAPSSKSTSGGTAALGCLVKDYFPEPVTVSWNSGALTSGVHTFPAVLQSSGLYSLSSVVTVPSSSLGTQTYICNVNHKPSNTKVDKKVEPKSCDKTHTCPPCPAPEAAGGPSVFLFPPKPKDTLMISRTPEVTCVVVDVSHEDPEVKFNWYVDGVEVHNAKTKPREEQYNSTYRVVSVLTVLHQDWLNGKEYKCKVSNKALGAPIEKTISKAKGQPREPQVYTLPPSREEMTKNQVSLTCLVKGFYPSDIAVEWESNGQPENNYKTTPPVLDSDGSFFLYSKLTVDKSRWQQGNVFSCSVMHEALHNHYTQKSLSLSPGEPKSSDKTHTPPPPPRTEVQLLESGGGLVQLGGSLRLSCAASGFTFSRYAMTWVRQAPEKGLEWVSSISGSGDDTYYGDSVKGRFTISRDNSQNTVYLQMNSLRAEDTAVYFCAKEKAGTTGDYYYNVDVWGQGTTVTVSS
notes: Structure 1, IgG-VH; PSMA Fab from PR001331, 4-1BB VH from PR001758; linker H1_15-RT; human IgG1 (AAG); also called PSMA×4-1BB bispecific antibody molecule
B2: PR003556 (bispecific antibody, human IgG1, kappa, L234A L235A)
light: B1 light
heavy: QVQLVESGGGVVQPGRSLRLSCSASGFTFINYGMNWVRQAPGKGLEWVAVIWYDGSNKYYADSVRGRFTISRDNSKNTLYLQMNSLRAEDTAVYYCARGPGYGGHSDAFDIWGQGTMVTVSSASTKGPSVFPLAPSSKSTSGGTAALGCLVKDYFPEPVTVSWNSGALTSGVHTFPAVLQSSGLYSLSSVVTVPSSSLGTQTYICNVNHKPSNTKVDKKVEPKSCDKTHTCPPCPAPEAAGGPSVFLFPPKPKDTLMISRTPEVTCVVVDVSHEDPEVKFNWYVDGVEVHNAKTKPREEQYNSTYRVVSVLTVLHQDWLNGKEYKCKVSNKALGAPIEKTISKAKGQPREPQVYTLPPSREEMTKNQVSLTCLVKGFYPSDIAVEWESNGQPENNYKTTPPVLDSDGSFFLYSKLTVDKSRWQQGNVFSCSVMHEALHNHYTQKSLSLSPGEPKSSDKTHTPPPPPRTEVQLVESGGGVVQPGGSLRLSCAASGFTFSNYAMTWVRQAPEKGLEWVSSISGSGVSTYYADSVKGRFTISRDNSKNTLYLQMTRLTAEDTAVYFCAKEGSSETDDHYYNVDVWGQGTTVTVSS
notes: Structure 1, IgG-VH; PSMA Fab from PR001331, 4-1BB VH from PR001760; linker H1_15-RT; human IgG1 (AAG); also called PSMA×4-1BB bispecific antibody molecule
B3: PR003557 (bispecific antibody, human IgG1, kappa, L234A L235A)
light: B1 light
heavy: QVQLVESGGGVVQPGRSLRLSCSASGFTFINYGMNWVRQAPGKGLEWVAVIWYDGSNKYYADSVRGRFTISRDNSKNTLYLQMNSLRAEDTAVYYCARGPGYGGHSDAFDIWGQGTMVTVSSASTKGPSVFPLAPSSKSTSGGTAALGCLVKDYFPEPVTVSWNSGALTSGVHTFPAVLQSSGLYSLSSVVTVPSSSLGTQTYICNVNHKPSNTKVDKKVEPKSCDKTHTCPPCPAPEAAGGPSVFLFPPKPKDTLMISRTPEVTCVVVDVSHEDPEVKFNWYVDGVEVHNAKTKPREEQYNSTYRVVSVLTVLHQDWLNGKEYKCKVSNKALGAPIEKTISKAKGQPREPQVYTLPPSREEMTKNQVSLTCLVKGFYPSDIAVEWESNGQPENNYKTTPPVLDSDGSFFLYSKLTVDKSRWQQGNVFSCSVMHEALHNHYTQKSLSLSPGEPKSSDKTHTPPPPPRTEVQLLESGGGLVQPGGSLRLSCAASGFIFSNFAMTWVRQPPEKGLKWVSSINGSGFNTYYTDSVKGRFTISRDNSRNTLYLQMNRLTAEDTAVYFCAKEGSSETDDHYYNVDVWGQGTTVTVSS
notes: Structure 1, IgG-VH; PSMA Fab from PR001331, 4-1BB VH from PR001836; linker H1_15-RT; human IgG (AAG) as printed; also called PSMA×4-1BB bispecific antibody molecule
B4: PR001331, anti-PSMA monoclonal antibody 2E8A1B1 hIgG1 (antibody, V domains shown)
VH: QVQLVESGGGVVQPGRSLRLSCSASGFTFINYGMNWVRQAPGKGLEWVAVIWYDGSNKYYADSVRGRFTISRDNSKNTLYLQMNSLRAEDTAVYYCARGPGYGGHSDAFDIWGQGTMVTVSS
VL: DIQMTQSPSSLSASIGDRVTITCRASQSINSYLNWYQQKPGKAPKLLIYTASSLLSGVPSRFSASGSWTDFSLTISSLQPEDFATYYCQQSFSTPYTFGQGTNLEIKR
notes: Parent monoclonal antibody of the PSMA end; hIgG1
B5: PR003549 (bispecific antibody, human IgG1, kappa, L234A L235A)
light: DIQMTQSPSTLSASVGDRVTVTCRASQSIYIWLAWYQQKPGKAPNLLIYKASSLETGVPSRFSGSGSGTEFTLTISSLQPDDFATYYCQQYYGSSRTFGQGTKVEIKRTVAAPSVFIFPPSDEQLKSGTASVVCLLNNFYPREAKVQWKVDNALQSGNSQESVTEQDSKDSTYSLSSTLTLSKADYEKHKVYACEVTHQGLSSPVTKSFNRGEC
heavy: EVQLVESGGGLVQPGGSLRLSCAASGFTFSSYWMSWVRQAPGKGLEWVANIKQEGSEKYYVDSVKGRFTISRDNAKNSLYLQMNSLRAEDTAVYYCARDRAVAGAFDIWGQGTMVTVSSASTKGPSVFPLAPSSKSTSGGTAALGCLVKDYFPEPVTVSWNSGALTSGVHTFPAVLQSSGLYSLSSVVTVPSSSLGTQTYICNVNHKPSNTKVDKKVEPKSCDKTHTCPPCPAPEAAGGPSVFLFPPKPKDTLMISRTPEVTCVVVDVSHEDPEVKFNWYVDGVEVHNAKTKPREEQYNSTYRVVSVLTVLHQDWLNGKEYKCKVSNKALGAPIEKTISKAKGQPREPQVYTLPPSREEMTKNQVSLTCLVKGFYPSDIAVEWESNGQPENNYKTTPPVLDSDGSFFLYSKLTVDKSRWQQGNVFSCSVMHEALHNHYTQKSLSLSPGEPKSSDKTHTPPPPPRTEVQLLESGGGLVQLGGSLRLSCAASGFTFSRYAMTWVRQAPEKGLEWVSSISGSGDDTYYGDSVKGRFTISRDNSQNTVYLQMNSLRAEDTAVYFCAKEKAGTTGDYYYNVDVWGQGTTVTVSS
notes: Structure 1, IgG-VH tetravalent symmetric; PD-L1 Fab from PR000265, 4-1BB VH from PR001758; linker H1_15-RT; human IgG1 (AAG); also called PD-L1×4-1BB bispecific antibody molecule
B6: PR007163 (bispecific antibody, human IgG1)
light: B5 light
heavy: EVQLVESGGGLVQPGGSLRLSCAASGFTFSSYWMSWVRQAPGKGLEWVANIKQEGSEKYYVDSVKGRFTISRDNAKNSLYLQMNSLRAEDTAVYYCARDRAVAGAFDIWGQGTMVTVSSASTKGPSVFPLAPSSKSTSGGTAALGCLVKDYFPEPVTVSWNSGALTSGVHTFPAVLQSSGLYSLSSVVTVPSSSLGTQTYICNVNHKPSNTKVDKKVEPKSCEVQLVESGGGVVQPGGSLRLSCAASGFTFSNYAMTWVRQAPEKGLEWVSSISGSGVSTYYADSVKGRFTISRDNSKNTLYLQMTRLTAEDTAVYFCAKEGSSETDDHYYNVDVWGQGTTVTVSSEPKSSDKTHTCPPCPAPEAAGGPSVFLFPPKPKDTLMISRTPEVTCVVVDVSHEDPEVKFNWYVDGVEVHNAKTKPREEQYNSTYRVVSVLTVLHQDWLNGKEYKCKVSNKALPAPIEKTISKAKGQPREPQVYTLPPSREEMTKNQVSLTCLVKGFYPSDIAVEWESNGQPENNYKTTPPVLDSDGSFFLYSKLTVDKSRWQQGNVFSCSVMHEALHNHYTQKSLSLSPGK
notes: Structure 4, Fab(CH1)-VH-Fc (Fab-HCAb); PD-L1 Fab from PR000265, 4-1BB VH from PR001760; no first linker, second linker human IgG1 hinge (C220S); human IgG1 (LALA); also called PD-L1×4-1BB bispecific antibody molecule, structure (4)
B7: PR003550 (bispecific antibody, human IgG1, kappa, L234A L235A)
light: B5 light
heavy: EVQLVESGGGLVQPGGSLRLSCAASGFTFSSYWMSWVRQAPGKGLEWVANIKQEGSEKYYVDSVKGRFTISRDNAKNSLYLQMNSLRAEDTAVYYCARDRAVAGAFDIWGQGTMVTVSSASTKGPSVFPLAPSSKSTSGGTAALGCLVKDYFPEPVTVSWNSGALTSGVHTFPAVLQSSGLYSLSSVVTVPSSSLGTQTYICNVNHKPSNTKVDKKVEPKSCDKTHTCPPCPAPEAAGGPSVFLFPPKPKDTLMISRTPEVTCVVVDVSHEDPEVKFNWYVDGVEVHNAKTKPREEQYNSTYRVVSVLTVLHQDWLNGKEYKCKVSNKALGAPIEKTISKAKGQPREPQVYTLPPSREEMTKNQVSLTCLVKGFYPSDIAVEWESNGQPENNYKTTPPVLDSDGSFFLYSKLTVDKSRWQQGNVFSCSVMHEALHNHYTQKSLSLSPGEPKSSDKTHTPPPPPRTEVQLVESGGGVVQPGGSLRLSCAASGFTFSNYAMTWVRQAPEKGLEWVSSISGSGVSTYYADSVKGRFTISRDNSKNTLYLQMTRLTAEDTAVYFCAKEGSSETDDHYYNVDVWGQGTTVTVSS
notes: Structure 1, IgG-VH tetravalent symmetric; PD-L1 Fab from PR000265, 4-1BB VH from PR001760; linker H1_15-RT; human IgG1 (AAG); also called PD-L1×4-1BB bispecific antibody molecule
B8: PR003551 (bispecific antibody, human IgG1, kappa, L234A L235A)
light: B5 light
heavy: EVQLVESGGGLVQPGGSLRLSCAASGFTFSSYWMSWVRQAPGKGLEWVANIKQEGSEKYYVDSVKGRFTISRDNAKNSLYLQMNSLRAEDTAVYYCARDRAVAGAFDIWGQGTMVTVSSASTKGPSVFPLAPSSKSTSGGTAALGCLVKDYFPEPVTVSWNSGALTSGVHTFPAVLQSSGLYSLSSVVTVPSSSLGTQTYICNVNHKPSNTKVDKKVEPKSCDKTHTCPPCPAPEAAGGPSVFLFPPKPKDTLMISRTPEVTCVVVDVSHEDPEVKFNWYVDGVEVHNAKTKPREEQYNSTYRVVSVLTVLHQDWLNGKEYKCKVSNKALGAPIEKTISKAKGQPREPQVYTLPPSREEMTKNQVSLTCLVKGFYPSDIAVEWESNGQPENNYKTTPPVLDSDGSFFLYSKLTVDKSRWQQGNVFSCSVMHEALHNHYTQKSLSLSPGEPKSSDKTHTPPPPPRTEVQLLESGGGLVQPGGSLRLSCAASGFIFSNFAMTWVRQPPEKGLKWVSSINGSGFNTYYTDSVKGRFTISRDNSRNTLYLQMNRLTAEDTAVYFCAKEGSSETDDHYYNVDVWGQGTTVTVSS
notes: Structure 1, IgG-VH tetravalent symmetric; PD-L1 Fab from PR000265, 4-1BB VH from PR001836; linker H1_15-RT; human IgG (AAG) as printed; also called PD-L1×4-1BB bispecific antibody molecule
B9: PR004270 (bispecific antibody, human IgG1)
chain 1: EVQLVESGGGLVQPGGSLRLSCAASGFTFSSYWMSWVRQAPGKGLEWVANIKQEGSEKYYVDSVKGRFTISRDNAKNSLYLQMNSLRAEDTAVYYCARDRAVAGAFDIWGQGTMVTVSSASTKGPSVFPLAPSSKSTSGGTAALGCLVKDYFPEPVTVSWNSGALTSGVHTFPAVLQSSGLYSLSSVVTVPSSSLGTQTYICNVNHKPSNTKVDKKVEPKSC
chain 2: not shown
notes: Structure 3, Fab(CL)-VH-Fc (Fab-HCAb) tetravalent symmetric; PD-L1 Fab from PR000265, 4-1BB VH from PR001760; L1 H1_15, L2 human IgG1 hinge (C220S); human IgG1 (LALA); also called PD-L1×4-1BB bispecific antibody molecule with the Fab-HCAb symmetric structure
B10: PR007164 (bispecific antibody, human IgG1)
chain 1: B9 chain 1
chain 2: not shown
notes: Structure 3, Fab(CL)-VH-Fc (Fab-HCAb); PD-L1 Fab from PR000265, 4-1BB VH from PR001760; no first linker, second linker human IgG1 hinge (C220S); human IgG1 (LALA); also called PD-L1×4-1BB bispecific antibody molecule, structure (3)
B11: PR000265, anti-PD-L1 91G3H5H3(D54E), hIgG1(N297A) (antibody, V domains shown)
VH: EVQLVESGGGLVQPGGSLRLSCAASGFTFSSYWMSWVRQAPGKGLEWVANIKQEGSEKYYVDSVKGRFTISRDNAKNSLYLQMNSLRAEDTAVYYCARDRAVAGAFDIWGQGTMVTVSS
VL: DIQMTQSPSTLSASVGDRVTVTCRASQSIYIWLAWYQQKPGKAPNLLIYKASSLETGVPSRFSGSGSGTEFTLTISSLQPDDFATYYCQQYYGSSRTFGQGTKVEIKR
notes: Parent monoclonal antibody of the PD-L1 end

Molecular target: T1, human PSMA (human, UniProt Q04609 1-750)
T1 construct: whole, on cells; On LNCaP cells highly expressing human PSMA (Nanjing Cobioer, CBP60364); also called FOLH1; glutamate carboxypeptidase 2
Test: flow cytometry, LNCaP cells highly expressing human PSMA

T1 sequence (Q04609 whole entry): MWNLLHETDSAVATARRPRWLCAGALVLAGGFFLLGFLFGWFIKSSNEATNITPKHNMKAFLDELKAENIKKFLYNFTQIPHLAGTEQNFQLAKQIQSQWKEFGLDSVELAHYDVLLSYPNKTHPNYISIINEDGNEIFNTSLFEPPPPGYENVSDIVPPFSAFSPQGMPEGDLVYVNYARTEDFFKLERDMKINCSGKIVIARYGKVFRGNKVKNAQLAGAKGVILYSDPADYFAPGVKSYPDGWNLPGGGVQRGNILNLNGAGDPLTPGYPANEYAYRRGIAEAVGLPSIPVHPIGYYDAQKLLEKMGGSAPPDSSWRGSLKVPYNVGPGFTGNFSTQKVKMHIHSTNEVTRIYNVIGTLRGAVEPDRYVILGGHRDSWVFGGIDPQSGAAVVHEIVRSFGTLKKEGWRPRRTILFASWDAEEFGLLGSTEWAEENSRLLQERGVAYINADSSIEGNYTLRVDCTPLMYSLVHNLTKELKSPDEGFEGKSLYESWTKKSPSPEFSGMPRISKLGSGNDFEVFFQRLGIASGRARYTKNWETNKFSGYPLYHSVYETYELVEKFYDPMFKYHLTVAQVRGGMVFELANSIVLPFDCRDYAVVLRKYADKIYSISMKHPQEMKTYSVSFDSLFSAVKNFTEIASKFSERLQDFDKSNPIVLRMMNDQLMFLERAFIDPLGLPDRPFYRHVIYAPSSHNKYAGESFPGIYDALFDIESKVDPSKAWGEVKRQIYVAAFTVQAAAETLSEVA

Row | binding result | Binder
1 | binds | B1
2 | binds | B2
3 | binds | B3
4 | binds | B4

Molecular target: T2, human PD-L1 (human, UniProt Q9NZQ7 19-290)
T2 construct: whole, on cells; Expressed on CHO-K1/hPD-L1 cells (GenScript, M00543); also called CD274; B7-H1
Test: flow cytometry, CHO-K1/hPD-L1 cells

T2 sequence (Q9NZQ7 19-290): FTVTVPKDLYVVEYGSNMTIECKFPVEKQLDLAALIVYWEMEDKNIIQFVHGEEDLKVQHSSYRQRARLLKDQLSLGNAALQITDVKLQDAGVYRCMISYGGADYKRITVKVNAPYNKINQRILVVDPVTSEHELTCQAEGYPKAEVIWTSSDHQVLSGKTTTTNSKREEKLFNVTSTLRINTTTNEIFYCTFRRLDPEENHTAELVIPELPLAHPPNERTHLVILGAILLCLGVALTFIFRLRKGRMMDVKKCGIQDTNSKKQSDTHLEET

Row | binding result | Binder
5 | binds | B5
6 | binds | B6
7 | binds | B7
8 | binds | B8
9 | binds | B9
10 | binds | B10
11 | binds | B11

Molecular target: T3, human 4-1BB (human, UniProt Q07011 24-255)
T3 construct: whole, on cells; Expressed on CHO-K1/hu 4-1BB cells (GenScript, M00538); also called CD137; TNFRSF9
Test: flow cytometry, CHO-K1/hu 4-1BB cells
Protocol: The binding ability of the binding protein to a CHO-K1 cell line CHO-K1/hu 4-1BB (GenScript, M00538) highly expressing human 4-1BB and a CHO-K1 cell line CHO-K1/cyno 4-1BB (GenScript, M00569) highly expressing cynomolgus monkey 4-1BB were determined by flow cytometry FACS. Specifically, the cells were digested and resuspended in a complete medium, and the cell density was adjusted to 2×10⁶ cells/mL. […] The cells were incubated at 4° C. for 1 h away from light. Then, the cells in each well were rinsed twice with 100 μL of pre-cooled FACS buffer (PBS buffer containing 0.5% BSA) and centrifuged at 500 g at 4° C. for 5 min, and then the supernatant was discarded. […] Then, the cells in each well were then rinsed twice with 200 μL of pre-cooled FACS buffer and centrifuged at 500 g at 4° C. for 5 min, and then the supernatant was discarded. Finally, a pre-cooled FACS buffer was added at 200 μL/well to resuspend the cells. Fluorescence signal values were read using a BD FACS CANTOII flow cytometer or an ACEA NovoCyte flow cytometer, and the data were processed and analyzed using FlowJo v10 (FlowJo, LLC) software.

T3 sequence (Q07011 24-255): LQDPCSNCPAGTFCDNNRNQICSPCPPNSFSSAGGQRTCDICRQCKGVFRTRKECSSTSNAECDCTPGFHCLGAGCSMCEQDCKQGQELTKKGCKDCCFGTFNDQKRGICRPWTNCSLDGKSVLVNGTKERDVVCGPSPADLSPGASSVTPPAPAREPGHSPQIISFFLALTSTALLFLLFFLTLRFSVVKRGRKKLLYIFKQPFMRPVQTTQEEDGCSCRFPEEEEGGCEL

Row | binding result | Binder
12 | binds | B5
13 | binds | B8
14 | binds | B1
15 | binds | B2
16 | binds | B3
